Assay results taken from publication PMC8934265.

What was measured:
[1] = molecular target: T1, NFYA-1 (T08D10.1), MBP fusion;NFYB-1, MBP fusion;NFYC-1, MBP fusion (Caenorhabditis elegans;Caenorhabditis …, UniProt G5EEG1;O17286;O17072 1-482;1-403;1-232, ||); test: EMSA
T1 sequence 1: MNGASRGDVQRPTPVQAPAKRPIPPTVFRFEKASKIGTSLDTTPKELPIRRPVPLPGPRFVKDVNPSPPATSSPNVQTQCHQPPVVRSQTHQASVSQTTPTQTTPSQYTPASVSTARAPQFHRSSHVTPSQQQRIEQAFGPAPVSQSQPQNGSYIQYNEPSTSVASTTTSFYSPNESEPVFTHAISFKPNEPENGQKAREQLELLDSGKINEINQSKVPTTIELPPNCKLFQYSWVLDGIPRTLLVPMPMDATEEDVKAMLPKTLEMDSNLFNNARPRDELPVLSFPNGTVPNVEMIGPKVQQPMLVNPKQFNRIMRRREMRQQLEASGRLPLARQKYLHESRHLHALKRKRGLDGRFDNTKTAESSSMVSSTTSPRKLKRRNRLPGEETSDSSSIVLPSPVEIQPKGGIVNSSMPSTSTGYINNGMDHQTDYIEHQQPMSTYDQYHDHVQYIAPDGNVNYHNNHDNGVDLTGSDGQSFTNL
T1 sequence 2: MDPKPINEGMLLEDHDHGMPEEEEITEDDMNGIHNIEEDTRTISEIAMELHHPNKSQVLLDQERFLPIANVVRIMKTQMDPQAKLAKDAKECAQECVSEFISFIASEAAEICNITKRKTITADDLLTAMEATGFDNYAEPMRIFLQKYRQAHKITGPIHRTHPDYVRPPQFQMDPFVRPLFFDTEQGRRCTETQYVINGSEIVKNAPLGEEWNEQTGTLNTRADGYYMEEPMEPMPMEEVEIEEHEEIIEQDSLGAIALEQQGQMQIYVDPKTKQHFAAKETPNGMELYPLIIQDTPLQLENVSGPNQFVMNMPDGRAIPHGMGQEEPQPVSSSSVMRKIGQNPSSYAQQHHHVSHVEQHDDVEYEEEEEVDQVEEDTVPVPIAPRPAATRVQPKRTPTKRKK
T1 sequence 3: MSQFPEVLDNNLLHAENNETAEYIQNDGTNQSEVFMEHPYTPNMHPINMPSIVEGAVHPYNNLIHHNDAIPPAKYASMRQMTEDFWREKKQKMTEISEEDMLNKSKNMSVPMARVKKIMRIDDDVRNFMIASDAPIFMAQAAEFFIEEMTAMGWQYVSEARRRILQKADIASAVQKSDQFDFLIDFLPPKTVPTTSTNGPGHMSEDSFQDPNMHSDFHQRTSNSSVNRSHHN

[2] = molecular target: T1, NFYA-1 (T08D10.1), MBP fusion;NFYB-1, …; test: competition
[3] = molecular target: T1, NFYA-1 (T08D10.1), MBP fusion;NFYB-1, …; test: competition; remark: listed apart in the source

B1: CCAAT box probe (dsDNA)
DNA 1: AGTTGTAGGCCTCTGCTTCCTGACCAATCTACAGAATAGGCTCCGCCTTC
DNA 2: AGTTGAAGGCGGAGCCTATTCTGTAGATTGGTCAGGAAGCAGAGGCCTAC
binding result [1]: binds

B2: CCAAT box mutant competitor (+mut) (dsDNA)
DNA 1: AGTTGTAGGCCTCTGCTTCCTGACATGTCTACAGAATAGGCTCCGCCTTC
DNA 2: AGTTGAAGGCGGAGCCTATTCTGTAGACATGTCAGGAAGCAGAGGCCTAC
binding result [2]: no binding

B3: CCAAT box wild-type competitor (+CAAT) (dsDNA)
DNA 1: AGTTGTAGGCCTCTGCTTCCTGACCAATCTACAGAATAGGCTCCGCCTTC
DNA 2: AGTTGAAGGCGGAGCCTATTCTGTAGATTGGTCAGGAAGCAGAGGCCTAC
binding result [3]: binds
